Measurements: the supplement of paper PMC9112550, “Optimization of the antimicrobial peptide Bac7 by deep mutational scanning” (BMC Biology, 2022)

System: Escherichia coli TOP10
Experiment: shrunken log2 fold change of peptide-encoding DNA abundance (4.5 h post-induction vs induction); higher = less antimicrobial activity (less host growth inhibition)
Conditions: time post-induction: 4.5 h; library: site-saturation at positions 5, 18, 19, 20
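Also: peptides expressed intracellularly from a pBAD plasmid library in pooled LB shake-flask culture, induced with 0.3% L-arabinose, DNA abundance read by NGS, three biological replicates, DESeq2 with apeglm shrinkage.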

Sequence	shrunken log2 fold change
RRIRQRPPRLPRPRPRPKKEPRP	0.00476
RRIRQRPPRLPRPRPRPKKFPRP	-0.097
RRIRQRPPRLPRPRPRPKKLPRP	-0.296
RRIRQRPPRLPRPRPRPKLPPRP	0.146
RRIRQRPPRLPRPRPRPKLYPRP	-0.0149
RRIRQRPPRLPRPRPRPKREPRP	0.119
RRIRQRPPRLPRPRPRPKTMPRP	-0.0635
RRIRQRPPRLPRPRPRPKTYPRP	-0.241
RRIRQRPPRLPRPRPRPKWHPRP	0.48
RRIRQRPPRLPRPRPRPKWLPRP	0.0992
RRIRQRPPRLPRPRPRPKWQPRP	0.0435
RRIRQRPPRLPRPRPRPKYGPRP	-0.3
RRIRQRPPRLPRPRPRPKYRPRP	-0.0976
RRIRQRPPRLPRPRPRPLDNPRP	-0.151
RRIRQRPPRLPRPRPRPLECPRP	-0.184
RRIRQRPPRLPRPRPRPLERPRP	0.0228
RRIRQRPPRLPRPRPRPLFIPRP	-0.673
RRIRQRPPRLPRPRPRPLGGPRP	-0.12
RRIRQRPPRLPRPRPRPLHKPRP	0.0733
RRIRQRPPRLPRPRPRPLHPPRP	-0.0917
RRIRQRPPRLPRPRPRPLIDPRP	-0.206
RRIRQRPPRLPRPRPRPLKNPRP	-0.237
RRIRQRPPRLPRPRPRPLKPPRP	0.0722
RRIRQRPPRLPRPRPRPLMKPRP	0.158
RRIRQRPPRLPRPRPRPLMPPRP	-0.0453

Sequence	shrunken log2 fold change
RRIRQRPPRLPRPRPRPLPFPRP	-0.782
RRIRQRPPRLPRPRPRPLQPPRP	-0.0373
RRIRQRPPRLPRPRPRPLRGPRP	0.664
RRIRQRPPRLPRPRPRPLRIPRP	0.116
RRIRQRPPRLPRPRPRPLSIPRP	-0.325
RRIRQRPPRLPRPRPRPLTPPRP	0.31
RRIRQRPPRLPRPRPRPLVDPRP	0.187
RRIRQRPPRLPRPRPRPLWWPRP	0.121
RRIRQRPPRLPRPRPRPMAIPRP	-0.326
RRIRQRPPRLPRPRPRPMALPRP	0.00414
RRIRQRPPRLPRPRPRPMAVPRP	0.00724
RRIRQRPPRLPRPRPRPMCLPRP	-0.184
RRIRQRPPRLPRPRPRPMCMPRP	0.0416
RRIRQRPPRLPRPRPRPMHRPRP	-0.0558
RRIRQRPPRLPRPRPRPMIEPRP	-0.118
RRIRQRPPRLPRPRPRPMIYPRP	-0.0652
RRIRQRPPRLPRPRPRPMKIPRP	-0.0609
RRIRQRPPRLPRPRPRPMKMPRP	0.0133
RRIRQRPPRLPRPRPRPMNFPRP	-0.01
RRIRQRPPRLPRPRPRPMNMPRP	0.0227
RRIRQRPPRLPRPRPRPMPFPRP	-0.0697
RRIRQRPPRLPRPRPRPMSKPRP	-0.0682
RRIRQRPPRLPRPRPRPMVKPRP	0.0691
RRIRQRPPRLPRPRPRPMYIPRP	-0.0435
RRIRQRPPRLPRPRPRPNAFPRP	0.227

Sequence	shrunken log2 fold change
RRIRQRPPRLPRPRPRPNCHPRP	-0.548
RRIRQRPPRLPRPRPRPNDFPRP	0.0233
RRIRQRPPRLPRPRPRPNDHPRP	-0.884
RRIRQRPPRLPRPRPRPNGEPRP	0.0404
RRIRQRPPRLPRPRPRPNGSPRP	-0.00154
RRIRQRPPRLPRPRPRPNGWPRP	-0.0145
RRIRQRPPRLPRPRPRPNHKPRP	-0.493
RRIRQRPPRLPRPRPRPNHVPRP	0.0349
RRIRQRPPRLPRPRPRPNKTPRP	-0.0379
RRIRQRPPRLPRPRPRPNLIPRP	-0.556
RRIRQRPPRLPRPRPRPNMEPRP	-0.404
RRIRQRPPRLPRPRPRPNPVPRP	-0.117
RRIRQRPPRLPRPRPRPNQTPRP	-0.0346
RRIRQRPPRLPRPRPRPNSKPRP	-0.429
RRIRQRPPRLPRPRPRPNSVPRP	-0.265
RRIRQRPPRLPRPRPRPNTQPRP	-0.621
RRIRQRPPRLPRPRPRPNVLPRP	-0.0544
RRIRQRPPRLPRPRPRPNVMPRP	-0.254
RRIRQRPPRLPRPRPRPNVVPRP	0.0298
RRIRQRPPRLPRPRPRPPAAPRP	0.778
RRIRQRPPRLPRPRPRPPEGPRP	0.228
RRIRQRPPRLPRPRPRPPFHPRP	0.102
RRIRQRPPRLPRPRPRPPFKPRP	-0.0455
RRIRQRPPRLPRPRPRPPFSPRP	-0.0357
RRIRQRPPRLPRPRPRPPGGPRP	0.448

Sequence	shrunken log2 fold change
RRIRQRPPRLPRPRPRPPGRPRP	0.853
RRIRQRPPRLPRPRPRPPGVPRP	0.462
RRIRQRPPRLPRPRPRPPGYPRP	0.225
RRIRQRPPRLPRPRPRPPHGPRP	1.06
RRIRQRPPRLPRPRPRPPHNPRP	1.15
RRIRQRPPRLPRPRPRPPIAPRP	0.104
RRIRQRPPRLPRPRPRPPKEPRP	-0.168
RRIRQRPPRLPRPRPRPPLHPRP	0.24
RRIRQRPPRLPRPRPRPPLTPRP	0.0676
RRIRQRPPRLPRPRPRPPMFPRP	-0.325
RRIRQRPPRLPRPRPRPPMRPRP	0.862
RRIRQRPPRLPRPRPRPPNCPRP	0.0242
RRIRQRPPRLPRPRPRPPNEPRP	0.266
RRIRQRPPRLPRPRPRPPNGPRP	-0.00787
RRIRQRPPRLPRPRPRPPNLPRP	-0.00283
RRIRQRPPRLPRPRPRPPPEPRP	0.952
RRIRQRPPRLPRPRPRPPPKPRP	0.876
RRIRQRPPRLPRPRPRPPQGPRP	0.434
RRIRQRPPRLPRPRPRPPQNPRP	0.663
RRIRQRPPRLPRPRPRPPQWPRP	0.525
RRIRQRPPRLPRPRPRPPRIPRP	0.0686
RRIRQRPPRLPRPRPRPPSAPRP	0.5
RRIRQRPPRLPRPRPRPPWLPRP	0.307
RRIRQRPPRLPRPRPRPPWVPRP	0.696
RRIRQRPPRLPRPRPRPQAFPRP	-0.0347

Sequence	shrunken log2 fold change
RRIRQRPPRLPRPRPRPQCGPRP	-0.133
RRIRQRPPRLPRPRPRPQCIPRP	-0.0582
RRIRQRPPRLPRPRPRPQCMPRP	-0.496
RRIRQRPPRLPRPRPRPQCNPRP	-0.0983
RRIRQRPPRLPRPRPRPQDIPRP	0.0203
RRIRQRPPRLPRPRPRPQDVPRP	-0.0199
RRIRQRPPRLPRPRPRPQGAPRP	-0.0289
RRIRQRPPRLPRPRPRPQGVPRP	0.0036
RRIRQRPPRLPRPRPRPQIFPRP	-0.0511
RRIRQRPPRLPRPRPRPQKRPRP	-0.354
RRIRQRPPRLPRPRPRPQLRPRP	-0.165
RRIRQRPPRLPRPRPRPQPDPRP	-0.00546
RRIRQRPPRLPRPRPRPQQQPRP	-0.0448
RRIRQRPPRLPRPRPRPQRVPRP	-0.182
RRIRQRPPRLPRPRPRPQSSPRP	0.0994
RRIRQRPPRLPRPRPRPQVSPRP	0.301
RRIRQRPPRLPRPRPRPQWIPRP	-0.0848
RRIRQRPPRLPRPRPRPRDQPRP	-0.0332
RRIRQRPPRLPRPRPRPRDRPRP	0.399
RRIRQRPPRLPRPRPRPRECPRP	0.147
RRIRQRPPRLPRPRPRPRGAPRP	0.399
RRIRQRPPRLPRPRPRPRNTPRP	-0.00635
RRIRQRPPRLPRPRPRPRPEPRP	0.646
RRIRQRPPRLPRPRPRPRQQPRP	-0.0145
RRIRQRPPRLPRPRPRPRSPPRP	0.0984

Sequence	shrunken log2 fold change
RRIRQRPPRLPRPRPRPRSTPRP	0.203
RRIRQRPPRLPRPRPRPRTKPRP	0.0706
RRIRQRPPRLPRPRPRPRVNPRP	-0.0952
RRIRQRPPRLPRPRPRPRWKPRP	0.552
RRIRQRPPRLPRPRPRPRWNPRP	-0.0799
RRIRQRPPRLPRPRPRPRWSPRP	0.231
RRIRQRPPRLPRPRPRPRYGPRP	-0.407
RRIRQRPPRLPRPRPRPRYIPRP	-0.706
RRIRQRPPRLPRPRPRPRYKPRP	-0.278
RRIRQRPPRLPRPRPRPRYPPRP	-0.0427
RRIRQRPPRLPRPRPRPSCIPRP	-0.238
RRIRQRPPRLPRPRPRPSCMPRP	-0.508
RRIRQRPPRLPRPRPRPSDCPRP	-0.756
RRIRQRPPRLPRPRPRPSDVPRP	-0.0706
RRIRQRPPRLPRPRPRPSDYPRP	-0.0346
RRIRQRPPRLPRPRPRPSERPRP	-0.143
RRIRQRPPRLPRPRPRPSEVPRP	-0.022
RRIRQRPPRLPRPRPRPSGVPRP	-0.141
RRIRQRPPRLPRPRPRPSHPPRP	-0.272
RRIRQRPPRLPRPRPRPSIQPRP	-0.13
RRIRQRPPRLPRPRPRPSKRPRP	-0.188
RRIRQRPPRLPRPRPRPSLCPRP	-0.0894
RRIRQRPPRLPRPRPRPSLEPRP	0.0433
RRIRQRPPRLPRPRPRPSLLPRP	-0.216
RRIRQRPPRLPRPRPRPSMIPRP	-0.603
